Data reported in publication doi:10.1101/2022.03.18.484870 (bioRxiv, 2022).

T1: Alb4C-His (recombinant His-tagged C-terminus of Alb4, aa 334-499) (UniProt Q9FYL3 334-499)
T1 sequence: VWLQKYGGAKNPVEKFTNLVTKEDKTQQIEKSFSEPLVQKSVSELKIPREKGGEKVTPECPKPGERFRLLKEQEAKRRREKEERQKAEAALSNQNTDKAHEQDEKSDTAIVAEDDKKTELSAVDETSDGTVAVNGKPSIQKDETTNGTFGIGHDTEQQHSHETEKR

B1: His-mSTIC2 (recombinant mature Arabidopsis thaliana STIC2, aa 49-182) (natural protein)
chain: VNGLFGGGNKDNNSEDGQSKAGIFGNMQNMYETVKKAQMVVQVEAVRVQKELAAAEFDGYCAGELVKVTLSGNQQPIRTDITEAAMELGSEKLSQLVTEAYKDAHAKSVVAMKERMSDLAQSLGMPPGLSEGMK

Legend:
[1] = molecular target: B1; assay: peptide or protein array
[2] = molecular target: B1; assay: ITC
[3] = molecular target: T1, Alb4C-His (recombinant His-tagged …); assay: ITC

Row | Binder | binding result [1] | further results
1 | GERFRQLKEQEKRSK [Alb3 15mer peptide spot (aa 386-400)] | binds | 
2 | PKPGERFRLLKEQEA [Alb4 15mer peptide spot (aa 394-408)] | binds | 
3 | Alb3C-His (recombinant His-tagged C-terminus of Alb3, aa 350-462) (domain or fragment) VYLRKLGGAKPNMDENASKIISAGRAKRSIAQPDDAGERFRQLKEQEKRSKKNKAVAKDTVELVEESQSESEEGSDDEEEEAREGALASSTTSKPLPEVGQRRSKRSKRKRTV |  | Kd [2]: 136 µM
4 | B1 |  | Kd [3]: 16.6 µM
